Data taken from IntAct's records for PubMed 25910212.

B1: Keratin, type II cytoskeletal 6A (Homo sapiens), P02538 (parent)
chain: MASTSTTIRSHSSSRRGFSANSARLPGVSRSGFSSVSVSRSRGSGGLGGACGGAGFGSRSLYGLGGSKRISIGGGSCAISGGYGSRAGGSYGFGGAGSGFGFGGGAGIGFGLGGGAGLAGGFGGPGFPVCPPGGIQEVTVNQSLLTPLNLQIDPTIQRVRAEEREQIKTLNNKFASFIDKVRFLEQQNKVLETKWTLLQEQGTKTVRQNLEPLFEQYINNLRRQLDSIVGERGRLDSELRGMQDLVEDFKNKYEDEINKRTAAENEFVTLKKDVDAAYMNKVELQAKADTLTDEINFLRALYDAELSQMQTHISDTSVVLSMDNNRNLDLDSIIAEVKAQYEEIAQRSRAEAESWYQTKYEELQVTAGRHGDDLRNTKQEIAEINRMIQRLRSEIDHVKKQCANLQAAIADAEQRGEMALKDAKNKLEGLEDALQKAKQDLARLLKEYQELMNVKLALDVEIATYRKLLEGEECRLNGEGVGQVNISVVQSTVSSGYGGASGVGSGLGLGGGSSYSYGSGLGVGGGFSSSSGRAIGGGLSSVGGGSSTIKYTTTSSSSRKSYKH
partner: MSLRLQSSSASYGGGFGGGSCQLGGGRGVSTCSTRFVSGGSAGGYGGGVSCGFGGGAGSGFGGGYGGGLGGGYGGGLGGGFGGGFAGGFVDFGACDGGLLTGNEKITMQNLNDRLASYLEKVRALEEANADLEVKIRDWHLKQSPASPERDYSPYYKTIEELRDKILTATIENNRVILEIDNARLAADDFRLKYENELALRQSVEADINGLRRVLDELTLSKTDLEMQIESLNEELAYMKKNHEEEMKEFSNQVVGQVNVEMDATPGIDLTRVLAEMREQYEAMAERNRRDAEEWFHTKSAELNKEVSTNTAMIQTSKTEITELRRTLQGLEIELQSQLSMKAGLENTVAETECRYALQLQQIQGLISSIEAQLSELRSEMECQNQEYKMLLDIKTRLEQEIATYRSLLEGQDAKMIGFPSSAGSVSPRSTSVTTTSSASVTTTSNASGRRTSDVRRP
B2: Ubiquitin-protein ligase (Homo sapiens), Q05086 (parent)
chain: MEKLHQCYWKSGEPQSDDIEASRMKRAAAKHLIERYYHQLTEGCGNEACTNEFCASCPTFLRMDNNAAAIKALELYKINAKLCDPHPSKKGASSAYLENSKGAPNNSCSEIKMNKKGARIDFKDVTYLTEEKVYEILELCREREDYSPLIRVIGRVFSSAEALVQSFRKVKQHTKEELKSLQAKDEDKDEDEKEKAACSAAAMEEDSEASSSRIGDSSQGDNNLQKLGPDDVSVDIDAIRRVYTRLLSNEKIETAFLNALVYLSPNVECDLTYHNVYSRDPNYLNLFIIVMENRNLHSPEYLEMALPLFCKAMSKLPLAAQGKLIRLWSKYNADQIRRMMETFQQLITYKVISNEFNSRNLVNDDDAIVAASKCLKMVYYANVVGGEVDTNHNEEDDEEPIPESSELTLQELLGEERRNKKGPRVDPLETELGVKTLDCRKPLIPFEEFINEPLNEVLEMDKDYTFFKVETENKFSFMTCPFILNAVTKNLGLYYDNRIRMYSERRITVLYSLVQGQQLNPYLRLKVRRDHIIDDALVRLEMIAMENPADLKKQLYVEFEGEQGVDEGGVSKEFFQLVVEEIFNPDIGMFTYDESTKLFWFNPSSFETEGQFTLIGIVLGLAIYNNCILDVHFPMVVYRKLMGKKGTFRDLGDSHPVLYQSLKDLLEYEGNVEDDMMITFQISQTDLFGNPMMYDLKENGDKIPITNENRKEFVNLYSDYILNKSVEKQFKAFRRGFHMVTNESPLKYLFRPEEIELLICGSRNLDFQALEETTEYDGGYTRDSVLIREFWEIVHSFTDEQKRLFLQFTTGTDRAPVGGLGKLKMIIAKNGPDTERLPTSHTCFNVLLLPEYSSKEKLKERLLKAITYAKGFGML
partner: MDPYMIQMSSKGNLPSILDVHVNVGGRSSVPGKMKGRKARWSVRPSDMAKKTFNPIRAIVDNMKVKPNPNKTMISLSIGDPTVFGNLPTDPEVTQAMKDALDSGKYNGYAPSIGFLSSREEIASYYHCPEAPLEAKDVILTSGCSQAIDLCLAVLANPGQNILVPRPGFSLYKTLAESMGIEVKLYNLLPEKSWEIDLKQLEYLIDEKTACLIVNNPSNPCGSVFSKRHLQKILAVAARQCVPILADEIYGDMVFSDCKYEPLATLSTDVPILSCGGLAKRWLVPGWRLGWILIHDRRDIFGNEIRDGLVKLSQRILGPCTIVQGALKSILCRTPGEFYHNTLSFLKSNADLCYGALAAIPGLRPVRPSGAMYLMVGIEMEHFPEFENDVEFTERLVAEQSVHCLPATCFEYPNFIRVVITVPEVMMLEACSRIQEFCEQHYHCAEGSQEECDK
B3: Acetylcholine receptor subunit gamma (Homo sapiens), P07510-2 (parent)
chain: MHGGQGPLLLLLLLAVCLGAQGRNQEERLLADLMQNYDPNLRPAERDSDVVNVSLKLTLTNLISLNEREEALTTNVWIEMQWCDYRLRWDPRDYEGLWVLRVPSTMVWRPDIVLENKSQTYSTNEIDLQLSQEDGQTIEWIFIDPEAFTENGEWAIQHRPAKMLLDPAAPAQEAGHQKVVFYLLIQRKPLFYVINIIAPCVLISSVAILIHFLPAKAGGQKCTVAINVLLAQTVFLFLVAKKVPETSQAVPLISKYLTFLLVVTILIVVNAVVVLNVSLRSPHTHSMARGVRKVFLRLLPQLLRMHVRPLAPAAVQDTQSRLQNGSSGWSITTGEEVALCLPRSELLFQQWQRQGLVAAALEKLEKGPELGLSQFCGSLKQAAPAIQACVEACNLIACARHQQSHFDNGNEEWFLVGRVLDRVCFLAMLSLFICGTAGIFLMAHYNRVPALPFPGDPRPYLPSPD

Variants of: B1
Details: with KRT13, P13646

effect of a mutation on the interaction	Variant
with no effect	T552S
with no effect	A463P
with no effect	I462S

The next lines start with the variant.

Variant	effect of a mutation on the interaction
N21S	with no effect
F249L	with no effect
F174V	with no effect

Variants of: B2
Details: with atty_human TAT

effect of a mutation on the interaction	Variant
disrupting interaction strength	R529C
disrupting interaction strength	S372P
disrupting interaction strength	I827K

Variants of: B3
Details: with mdfi_human MDFI

effect of a mutation on the interaction	Variant
disrupting interaction strength	R86C
disrupting interaction strength	R187C
disrupting interaction strength	V107G

Variants of: B3
Details: with nt2na_human NOTCH2NLA

effect of a mutation on the interaction	Variant
disrupting interaction strength	R86C
disrupting interaction strength	R187C
disrupting interaction strength	V107G

Variants of: B3
Details: with k1h1_human KRT31, Q15323
Chain of k1h1_human KRT31, Q15323 (Q15323 whole entry): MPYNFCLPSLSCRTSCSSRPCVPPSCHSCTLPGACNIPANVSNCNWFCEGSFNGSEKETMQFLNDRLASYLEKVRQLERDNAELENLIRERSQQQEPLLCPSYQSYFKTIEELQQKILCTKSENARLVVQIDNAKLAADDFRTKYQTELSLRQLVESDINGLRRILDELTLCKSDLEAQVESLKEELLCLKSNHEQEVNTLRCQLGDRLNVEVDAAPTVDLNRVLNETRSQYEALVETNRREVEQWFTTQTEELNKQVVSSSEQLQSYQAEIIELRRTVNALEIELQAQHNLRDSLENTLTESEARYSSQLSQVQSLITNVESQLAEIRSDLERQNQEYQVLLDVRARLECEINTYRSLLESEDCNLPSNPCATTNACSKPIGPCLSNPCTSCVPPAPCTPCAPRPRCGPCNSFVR

effect of a mutation on the interaction	Variant
disrupting interaction strength	R86C
disrupting interaction strength	R187C
disrupting interaction strength	V107G

Variants of: B3
Details: with meox2_human MEOX2, P50222
Chain of meox2_human MEOX2, P50222 (P50222 whole entry): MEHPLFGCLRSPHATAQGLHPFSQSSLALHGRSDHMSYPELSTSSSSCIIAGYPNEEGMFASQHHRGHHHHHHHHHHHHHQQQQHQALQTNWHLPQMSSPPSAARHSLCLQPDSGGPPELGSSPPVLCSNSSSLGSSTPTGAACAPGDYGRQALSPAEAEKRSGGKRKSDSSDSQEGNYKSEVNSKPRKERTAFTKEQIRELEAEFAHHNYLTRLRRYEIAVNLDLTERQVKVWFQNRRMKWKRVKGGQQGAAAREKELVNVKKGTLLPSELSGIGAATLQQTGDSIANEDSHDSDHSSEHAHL

effect of a mutation on the interaction	Variant
disrupting interaction strength	R86C
disrupting interaction strength	R187C
disrupting interaction strength	V107G
